Read-outs that look alike come from different tables or passages of the source.
B1: T. aurantiacus GH61A polypeptide: GH61A polypeptide having cellulolytic enhancing activity (SEQ ID NO: 14), recombinantly prepared in Aspergillus oryzae JaL250 (protein, listed as Thermoascus aurantiacus)
chain: MSFSKIIATAGVLASASLVAGHGFVQNIVIDGKYYGGYLVNQYPYMSNPPEVIAWSTTATDLGFVDGTGYQTPDIICHRGAKPGALTAPVSPGGTVELQWTPWPDSHHGPVINYLAPCNGDCSTVDKTQLEFFKIAESGLINDDNPPGIWASDNLIAANNSWTVTIPTTIAPGNYVLRHEIIALHSAQNQDGAQNYPQCINLQVTGGGSDNPAGTLGTALYHDTDPGILINIYQKLSSYIIPGPPLYTG

Columns and labels:
[1] = tested on: Trichoderma reesei cellulase composition; assay type: biochemical
Description: (§1) Control saccharification reactions containing equivalent methanol-containing buffer concentrations, 2% and 10% (v/v) methanol, or no methanol, were performed on each 96-well plate. […] All experiments were performed in triplicate, unless otherwise indicated.
(§2) The filtrates were analyzed for sugar content as described below. […] Data were processed using MICROSOFT EXCEL® software (Microsoft, Richland, Wash., USA), or […]® software (Synergy Software, Reading, Pa., USA).
Similarly, the effect of each bicyclic compound tested in the absence of GH61 polypeptide was quantified by calculating the ratio of percent conversion for the T. reesei cellulase composition without supplemented GH61 polypeptide having cellulolytic enhancing activity in the presence of each compound to the percent conversion in the absence of each compound:
In general, the bicyclic compound effect(no GH61) was approximately 1, though the methanol solvent was inhibitory to cellulolysis (Example 3).

[2] = tested on: Trichoderma reesei cellulase composition; assay type: biochemical; details: for GH61 effect: 2% methanol
Description: as §1, §2
[formula] where 1.111 represents the mass conversion factor accounting for the hydration of glucose produced from the cellulose polymer. The fractional hydrolysis is defined herein as the conversion expressed as a fraction rather than as a percent (i.e., % conversion/100).
[formula] […] Thus for saccharification reactions where only the presence of a bicyclic compound differs, a difference in GH61 effect can be attributed to the effect of the bicyclic compound on the cellulolytic enhancing effect of the GH61 polypeptide.

Molecule | effect on saccharification by the T. reesei cellulase composition ([1]; 2% and 10% (v/v) methanol) | bicyclic compound effect(no GH61) ([1]; 2% methanol, 3 days) | bicyclic compound effect(no GH61) ([1]; 2% methanol, 7 days) | bicyclic compound effect(no GH61) ([1]; 10% methanol, 3 days) | bicyclic compound effect(no GH61) ([1]; 10% methanol, 7 days) | GH61 effect ([2]; 3 days of hydrolysis) | GH61 effect ([2]; 7 days of hydrolysis) | GH61 effect (Equation 4) ([2]; 10% methanol, 3 days) | percent conversion in the presence of 50% (w/w) T. aurantiacus GH61A polypeptide ([2]; 10% methanol, 3 days of hydrolysis) | percent conversion in the presence of 50% (w/w) T. aurantiacus GH61A polypeptide ([2]; 10% methanol, 7 days of hydrolysis) | percent conversion in the presence of 50% (w/w) T. aurantiacus GH61A polypeptide ([2]; 3 days of hydrolysis, no bicyclic compound, no methanol, averaged over all plates) | GH61 effect (Equation 4) ([2]; 3 days of saccharification, no bicyclic compound, no methanol) | percent conversion in the presence of 50% (w/w) T. aurantiacus GH61A polypeptide ([2]; 7 days of hydrolysis, no bicyclic compound, no methanol, averaged over all plates) | GH61 effect (Equation 4) ([2]; 7 days of saccharification, no bicyclic compound, no methanol) | GH61 effect on AVICEL ([2]; in the absence of bicyclic compounds)
CO [methanol] | inhibited saccharification | 0.93 | 0.90 | 0.43 | 0.35 | – | – | – | – | – | – | – | – | – | –
B1 | – | – | – | – | – | 0.98±0.078 | 1.01±0.06 | 1.00±0.068 | 11.8±0.379% | 15.1±0.388% | 26.2±1.17% | 0.98±0.064 | 41.4±1.67% | 0.99±0.051 | 1

Reference: patent US9458483B2, “Compositions comprising a polypeptide having cellulolytic enhancing activity and a bicyclic compound and uses thereof” (Novozymes, Inc., priority 2010, dated 2016)
